Measured values: patent publication US20260265334A1, “STAPLED PEPTIDES” (THE FLOREY INSTITUTE OF NEUROSCIENCE AND MENTAL HEALTH, priority 2023, published 2026)
Bridge positions count the residues as written; N and C are the ends. Square brackets hold non-standard residues; d marks the D form. Ends that are not written are not given here. Peptide text beside a SMILES is read from it. I, II: the chains in the order shown. αMeF = C[C@](N)(Cc1ccccc1)C(=O)O

How the values were obtained:
RXFP4 [1] = molecular target: T1, RXFP4 (Homo sapiens, UniProt Q8TDU9); assay: Eu-R3/I5 competition binding assay in CHO-K1-RXFP4 cells; parameters: expressed in transfected cells; conditions: read-out: Eu-R3/I5 pKi (converted)
T1 sequence (Q8TDU9 whole entry): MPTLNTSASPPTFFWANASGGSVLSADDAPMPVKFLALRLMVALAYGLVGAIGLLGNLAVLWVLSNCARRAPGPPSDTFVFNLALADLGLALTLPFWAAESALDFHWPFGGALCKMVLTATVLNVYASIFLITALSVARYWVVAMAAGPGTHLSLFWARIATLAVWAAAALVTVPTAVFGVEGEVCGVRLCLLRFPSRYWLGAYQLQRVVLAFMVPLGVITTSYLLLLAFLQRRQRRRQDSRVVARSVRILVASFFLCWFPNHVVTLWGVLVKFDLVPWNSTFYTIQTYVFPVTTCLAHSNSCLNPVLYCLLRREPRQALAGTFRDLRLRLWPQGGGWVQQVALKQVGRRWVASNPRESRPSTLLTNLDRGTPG
Description: An Eu-R3/15 competition binding assay in CHO-K1-RXFP4 cells was carried out.
(§1) Competition binding curves for each peptide were performed in triplicate and each experiment was performed independently at least three times. Fluorescent measurements were carried out at excitation of 340 nm and emission of 614 nm on a BMG POLARstar plate reader (BMG Labtech, Melbourne, Australia). Pooled data were presented as mean±S.E.M. of specific binding and are fitted using a one-site binding curve in GraphPad Prism version 8 (GraphPad Inc., San Diego, USA). Statistical analyses were conducted using one-way analysis of variance with uncorrected Fisher's least significant difference (LSD) post-hoc analysis in GraphPad Prism version 9.
(§2) An additional analogue of INSL5 was utilised as a control, INSL5-A13, having an A chain (SEQ ID NO: 9) and a B chain (SEQ ID NO: 10) with a first disulfide bond between Cys 1 of the A chain and Cys 7 of the B chain, and a second disulfide bond between Cys 14 of the A chain and Cys 19 of the B chain:
(§3) Competition binding and cAMP activity assay were conducted by a procedure analogous to that described above for Example 3. The results are shown in FIG. 24 (RXFP3) and FIG. 25 (RXFP4).

RXFP4 [2] = molecular target: T1, RXFP4; assay: SmBiT-R3/I5 NanoBiT competition binding assay, HEK-LgBiT-RXFP4 membrane fractions; parameters: expressed in transfected cells; conditions: RXFP4, 2 nM SmBiT-R3/I5; Table 5; read-out: SmBiT R3/I5 pKi (converted)
Description: Furthermore, a SmBiT-R3/15 competition binding assay was performed. All peptides were examined for their binding affinity to RXFP4 utilizing a competition NanoLuc® Binary Technology (NanoBiT™) binding assay. Briefly, HEK-LgBiT-RXFP4 crude membrane fractions (25 μg protein) were incubated with 2 nM SmBiT-R3/15 and increasing concentrations of competing peptides in binding buffer (0.5% BSA, 20 mM HEPES pH 7.5, 1.5 mM CaCl2), 50 mM NaCl) in a total of 100 μL in 96-well Optiplates (PerkinElmer, Waltham MA, USA). After 1 hour of shaking at room temperature, 1.25 μM final concentration of coelenterazine 400a was added, and luminescence measurements were recorded using a MicroBeta Microplate Counter (PerkinElmer, Waltham MA, USA). Each concentration-response curve was tested in triplicate, and each experiment was repeated at least three times with data being expressed as the mean±standard error of the mean (S.E.M) % specific.

RXFP4 [3] = molecular target: T1, RXFP4; assay: Inhibition of forskolin-induced cAMP activity in CHO-K1-RXFP4 cells (pCRE β-galactosidase reporter); assay type: cell-based; parameters: expressed in transfected cells; conditions: for EC50: RXFP4, Table 5, read-out: cAMP pEC50 (converted)
Description: For agonist assays, cells were stimulated with forskolin (5 μM for RXFP3, 1 μM for RXFP4)±increasing concentrations of each peptide for 6 hours. Data were expressed as the % forskolin activity, whereby 100% was defined as forskolin alone and 0% as maximum agonist stimulation (1 μM Analogue 2 for RXFP3 and 1 μM Analogue 13 for RXFP4). Data were analysed and plotted using GraphPad Prism 9 and are expressed as the mean±SEM of the pooled data. Statistical analysis was conducted using one-way ANOVA with Uncorrected Fisher's LSD post-hoc analysis using GraphPad Prism 9.
as §2, §3

RXFP3 [4] = molecular target: T2, RXFP3 (Homo sapiens, UniProt Q9NSD7); assay: Inhibition of forskolin-induced cAMP activity in CHO-K1-RXFP3 cells (pCRE β-galactosidase reporter); assay type: cell-based; conditions: 5 μM forskolin, 6 hours, Table 2, read-out: cAMP pEC50 (converted)
T2 construct: expressed in transfected cells
T2 sequence (Q9NSD7 1-469): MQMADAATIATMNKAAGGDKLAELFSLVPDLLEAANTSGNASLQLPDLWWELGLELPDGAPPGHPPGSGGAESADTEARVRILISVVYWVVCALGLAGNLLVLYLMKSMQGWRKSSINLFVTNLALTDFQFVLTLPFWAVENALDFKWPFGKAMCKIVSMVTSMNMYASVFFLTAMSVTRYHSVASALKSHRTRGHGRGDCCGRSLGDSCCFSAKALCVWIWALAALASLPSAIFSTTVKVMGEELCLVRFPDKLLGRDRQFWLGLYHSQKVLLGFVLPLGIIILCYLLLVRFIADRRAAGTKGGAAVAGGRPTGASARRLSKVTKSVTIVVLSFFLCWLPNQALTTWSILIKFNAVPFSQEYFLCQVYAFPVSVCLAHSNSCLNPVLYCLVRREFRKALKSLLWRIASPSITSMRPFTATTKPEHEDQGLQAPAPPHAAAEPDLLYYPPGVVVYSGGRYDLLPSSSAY
Description: Since RXFP3 is coupled to Gi/o proteins, peptides were tested for their ability to activate RXFP3 as measured via their ability to inhibit forskolin-induced cAMP activity in CHO-K1-RXFP3 or CHO-K1-RXFP4 cells transfected with a pCRE (cAMP Response Element) β-galactosidase reporter plasmid (as described in Belgi, A et al., Structure and function relationship of murine insulin-like peptide 5 (INSL5): free C-terminus is essential for RXFP4 receptor binding and activation. Biochemistry 2011, 50 (39), 8352-61; and Haugaard-Kedstrom, L. M et al., Synthesis and pharmacological characterization of a europium-labelled single-chain antagonist for binding studies of the relaxin-3 receptor RXFP3. Amino Acids 2015, 47 (6), 1267-71). For agonist assays, cells were stimulated with forskolin (5 μM for RXFP3, 1 μM for RXFP4)±increasing concentrations of each peptide for 6 hours. Data were expressed as the % forskolin activity, whereby 100% was defined as forskolin alone and 0% as maximum agonist stimulation (1 μM Analogue 2 for RXFP3 and 1 μM Analogue 13 for RXFP4). Data were analysed and plotted using GraphPad Prism 9 and are expressed as the mean±SEM of the pooled data. Statistical analysis was conducted using one-way ANOVA with Uncorrected Fisher's LSD post-hoc analysis using GraphPad Prism 9.
as §3

RXFP3 [5] = molecular target: T2, RXFP3; assay: Eu-H3B1-22R competition binding assay in CHO-K1-RXFP3 cells; conditions: 5 nM Eu-H3B1-22R, mean ± SEM (n), Table 2, read-out: Eu-H3B1-22R pKi (converted)
Description: An Eu-H3B1-22R competition binding assay was conducted in CHO-K1-RXFP3 cells.
as §1, §3

[6] = In vitro serum stability in human serum at 37° C.; conditions: serum
[7] = molecular target: RXFP3 (relaxin family peptide receptor 3) on CHO-K1-RXFP3 cells (UniProt Q9NSD7); assay: competition with 5 nM Eu-H3B1-22R on CHO-K1-RXFP3 cells
[8] = molecular target: RXFP4 (relaxin family peptide receptor 4) on CHO-K1-RXFP4 cells (UniProt Q8TDU9); assay: competition with 5 nM Eu-DTPA-R3/I5 on CHO-K1-RXFP4 cells
RXFP4 (relaxin family peptide receptor 4) on CHO-K1-RXFP4 cells (UniProt Q8TDU9), sequence (Q8TDU9 whole entry): as the sequence (Q8TDU9 whole entry) above

[9] = molecular target: RXFP4 (relaxin family peptide receptor 4) on CHO-K1-RXFP4 cells (UniProt Q8TDU9); assay: cell-based or functional assay
[10] = molecular target: RXFP4-NLuc (nanoluciferase-tagged RXFP4) (UniProt Q8TDU9); assay: cell-based or functional assay
RXFP4-NLuc (nanoluciferase-tagged RXFP4) (UniProt Q8TDU9), sequence (Q8TDU9 whole entry): as the sequence (Q8TDU9 whole entry) above

[11] = molecular target: RXFP3 (relaxin family peptide receptor 3) on CHO-K1-RXFP3 cells (UniProt Q9NSD7); assay: cell-based or functional assay
[12] = molecular target: RXFP3-NLuc (human RXFP3 with Nanoluciferase on the C-terminus) (human) (UniProt Q9NSD7); assay: cell-based or functional assay
[13] = molecular target: T3, RXFP3 (relaxin family peptide receptor 3) on CHO-K1-RXFP3 cells, Q9NSD7; assay: cell-based or functional assay
T3 chain: T2 sequence (Q9NSD7 1-469)

[14] = molecular target: T4, RXFP4 (relaxin family peptide receptor 4) on CHO-K1-RXFP4 cells (UniProt Q8TDU9 1-374, limits assumed); assay: competition with Eu-R3/I5 on CHO-K1-RXFP4 cells
T4 construct: whole, on cells; also called INSL5 receptor
T4 sequence (Q8TDU9 whole entry): as the sequence (Q8TDU9 whole entry) above

[15] = molecular target: T5, RXFP3 (relaxin family peptide receptor 3) on CHO-K1-RXFP3 cells (UniProt Q9NSD7 1-469, limits assumed); assay: cell-based or functional assay
T5 sequence (looked up): T2 sequence (Q9NSD7 1-469)

[16] = molecular target: T5, RXFP3 (relaxin family peptide receptor …); assay: competition with Eu-H3B1-22R on CHO-K1-RXFP3 cells
[17] = molecular target: T4, RXFP4 (relaxin family peptide receptor …); assay: competition with 5 nM Eu-DTPA-R3/I5 on CHO-K1-RXFP4 cells
[18] = molecular target: T4, RXFP4 (relaxin family peptide receptor …); assay: cell-based or functional assay
[19] = molecular target: T4, RXFP4 (relaxin family peptide receptor …); assay: cell-based or functional assay; remark: listed apart in the source
[20] = molecular target: T5, RXFP3 (relaxin family peptide receptor …); assay: cell-based or functional assay; remark: listed apart in the source
[21] = molecular target: T5, RXFP3 (relaxin family peptide receptor …); assay: competition with 5 nM Eu-H3B1-22R on CHO-K1-RXFP3 cells
[22] = molecular target: T6, RXFP3-NLuc (human RXFP3 with Nanoluciferase on the C-terminus) (human, UniProt Q9NSD7 1-469); assay: cell-based or functional assay
T6 sequence (looked up): T2 sequence (Q9NSD7 1-469)

[23] = molecular target: RXFP4-NLuc (nanoluciferase-tagged RXFP4) (UniProt Q8TDU9 1-374); assay: cell-based or functional assay
RXFP4-NLuc (nanoluciferase-tagged RXFP4) (UniProt Q8TDU9 1-374), sequence (Q8TDU9 whole entry): as the sequence (Q8TDU9 whole entry) above

## CC[C@H](C)[C@H](NC(=O)[C@H](Cc1ccc(O)cc1)NC(=O)[C@@H](NC(=O)[C@@H](NC(=O)[C@](C)(Cc1ccccc1)NC(=O)[C@H](CCCNC(=N)N)NC(=O)[C@@H](NC(=O)[C@H](Cc1ccc(O)cc1)NC(=O)[C@](C)(Cc1ccccc1)NC(=O)[C@H](CC(C)C)NC(=O)CNC(=O)[C@@H](N)CO)[C@@H](C)CC)C(C)C)[C@@H](C)CC)C(=O)N[C@@H](CO)C(=O)NCC(=O)NCC(=O)N[C@@H](CO)C(=O)N[C@@H](CCCNC(=N)N)C(=O)N[C@@H](Cc1c[nH]c2ccccc12)C(=O)O [aF stapled analogue] (H-SGL[αMeF]YIR[αMeF]VIYISGGSRW-OH)
RXFP4 [1]; RXFP4, Table 5
  Ki: 158 nM
RXFP4 [2]
  Ki: 30.9 nM
RXFP4 [3]
  EC50: 87.1 nM

## SGREFIRAVIFTSGGSRW-OH [H3B10-27]
RXFP3 [4]
  EC50: > 10000 nM
RXFP4 [1]; RXFP4, CHO-K1-RXFP4 cells, 5 nM Eu-R3/I5, Table 3
  Ki: > 10000 nM
RXFP3 [5]
  Ki: > 10000 nM
RXFP4 [3]; RXFP4, CHO-K1-RXFP4 cells, 1 μM forskolin, 6 hours, Table 3
  cAMP pEC50: No activity (3)
[6]
  half-life at 400 µg/mL: ~20 min

## CC[C@H](C)[C@H](NC(=O)[C@H](Cc1ccc(O)cc1)NC(=O)[C@@H](NC(=O)[C@@H](NC(=O)[C@](C)(Cc1ccccc1)NC(=O)[C@H](CCCNC(=N)N)NC(=O)[C@@H](NC(=O)[C@H](Cc1ccc(O)cc1)NC(=O)[C@](C)(Cc1ccccc1)NC(=O)[C@H](CC(C)C)NC(=O)CNC(=O)[C@@H](N)CO)[C@@H](C)CC)C(C)C)[C@@H](C)CC)C(=O)N[C@@H](CCC(=O)O)C(=O)NCC(=O)NCC(=O)N[C@@H](CO)C(=O)N[C@@H](CCCNC(=N)N)C(=O)N[C@@H](Cc1c[nH]c2ccccc12)C(=O)O [πI5B7-24-GG-S19E] (H-SGL[αMeF]YIR[αMeF]VIYIEGGSRW-OH; N-terminus and C-terminus assumed)
RXFP4 [2]
  Ki: 7.41 nM
RXFP4 [3]
  EC50: 40.7 nM

## R3/I5 (R3/I5 chimeric relaxin peptide, RXFP3 agonist) (ligand)
[7]
  pKi: 7.77
[8]
  pKi: 8.28
[9]
  cAMP pEC50: 8.98
[10]
  RXFP4 pEC50 (β-arrestin2 recruitment, NanoBRET AUC): 7.56
[11]
  cAMP pEC50: 8.89
[12]
  RXFP3 pEC50 (β-arrestin2 recruitment, NanoBRET AUC): 7.91

## SGRFFIRFVIFTSGGSRW (modifications not checked) [H3B10-27(13/17F)]
[13]
  cAMP pEC50: < 5

## RAAPYGVRLSGREFIRAVIFTSR (23 residues) [H3B1-22R (Formula XI, known single chain antagonist of RXFP3)]
[14]
  binding result: no binding
[15]
  RXFP3 Antagonist potency pIC50: 6.25
[16]
  pKi: 7.64

B1: Human insulin-like peptide 7 (INSL7), also known as human relaxin-3 (H3 relaxin) (ligand)
chain 1: DVLAGLSSSCCKWGCSKSEISSLC
chain 2: RAAPYGVRLCGREFIRAVIFTCGGSRW
modifications: disulfide I:10-I:15; not fully specified; cysteine pairing not given here
[17]
  pKi: 8.42
[18]
  cAMP pEC50: 8.94

## SGR[αMeF]FIR[αMeF]VIFTSR (14 residues) [H3B10-22R13/17αF (Formula X, RXFP3 antagonist)]
[14]
  binding result: no binding
[19]
  RXFP4 cAMP pEC50: < 5
[15]
  RXFP3 Antagonist potency pIC50: 6.98
[16]
  pKi: 7.6

## SGREFIRAVIFTSGGSRW [H3B10-27 (native B10-27)]
[20]
  cAMP pEC50: < 5

B2: H3B10-27(13/17αF) (peptide)
peptide: SGR[αMeF]FIR[αMeF]VIFTSGGSRW
notes: 18-residue single-chain RXFP3 agonist, non-covalently stapled; also called πH3B; target peptide
[20]
  cAMP pEC50: 8.16
[21]
  pKi: 6.83
[17]
  pKi: 6.81
[22]
  RXFP3 pEC50 (β-arrestin2 recruitment, NanoBRET AUC): 7.19
[23]
  RXFP4 pEC50 (β-arrestin2 recruitment, NanoBRET AUC): 5.57
[18]
  cAMP pEC50: 7.26
